{
  "source": "IntAct's records for PubMed 19955185",
  "parents": {"B1": {"name": "Peroxisome proliferator-activated receptor alpha (Homo sapiens), Q07869 (parent)", "chain": "MVDTESPLCPLSPLEAGDLESPLSEEFLQEMGNIQEISQSIGEDSSGSFGFTEYQYLGSCPGSDGSVITDTLSPASSPSSVTYPVVPGSVDESPSGALNIECRICGDKASGYHYGVHACEGCKGFFRRTIRLKLVYDKCDRSCKIQKKNRNKCQYCRFHKCLSVGMSHNAIRFGRMPRSEKAKLKAEILTCEHDIEDSETADLKSLAKRIYEAYLKNFNMNKVKARVILSGKASNNPPFVIHDMETLCMAEKTLVAKLVANGIQNKEAEVRIFHCCQCTSVETVTELTEFAKAIPGFANLDLNDQVTLLKYGVYEAIFAMLSSVMNKDGMLVAYGNGFITREFLKSLRKPFCDIMEPKFDFAMKFNALELDDSDISLFVAAIICCGDRPGLLNVGHIEKMQEGIVHVLRLHLQSNHPDDIFLFPKLLQKMADLRQLVTEHAQLVQIIKKTESDAALHPLLQEIYRDMY"}},
  "data": [
    {"variants_of": "B1", "settings": "with ncor1_human NCOR1, O75376", "values": [
      {"variant": "K185R", "effect of a mutation on the interaction": "decreasing interaction"}
    ]}
  ]
}
